Assay results taken from patent US7973137.
“And” between values parts separate entries of the source, which are not always exact repeats. Equal values may be shown once.

How the values were obtained:
[1] = biological target: SIY-loaded H-2 K^bm3 on T2 K^bm3 cells (murine); test: flow cytometry on peptide-loaded T2 K^bm3 cells
[2] = biological target: QL9-loaded H-2 L^d (murine) (UniProt P01897); test: direct flow cytometry on peptide-loaded RMAS-L^d cells
[3] = biological target: QL9-loaded H-2 L^d (murine) (UniProt P01897); test: flow cytometry on cells loaded with a titration of peptide; lower end of the titration
[4] = biological target: p2Ca-loaded H-2 L^d (murine) (UniProt P01897); test: as above
p2Ca-loaded H-2 L^d (murine), sequence (P01897 25-362): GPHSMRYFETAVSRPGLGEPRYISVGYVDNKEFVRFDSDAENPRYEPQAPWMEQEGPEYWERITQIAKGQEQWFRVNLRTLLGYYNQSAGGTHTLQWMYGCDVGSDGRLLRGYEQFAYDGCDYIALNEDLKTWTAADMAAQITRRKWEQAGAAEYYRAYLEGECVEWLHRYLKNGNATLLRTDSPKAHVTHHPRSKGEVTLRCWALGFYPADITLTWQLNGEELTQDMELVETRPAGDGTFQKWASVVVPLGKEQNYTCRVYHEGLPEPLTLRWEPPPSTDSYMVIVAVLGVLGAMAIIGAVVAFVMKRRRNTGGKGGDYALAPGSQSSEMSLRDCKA

[5] = biological target: p2Ca-loaded H-2 L^d (murine) (UniProt P01897); test: flow cytometry on cells loaded with a titration of peptide; upper end of the titration
[6] = biological target: QL9-loaded H-2 L^d (murine) (UniProt P01897); test: direct flow cytometry on peptide-loaded RMA-S L^d cells, serial dilutions, detected with H57-FITC
[7] = biological target: unloaded H-2 L^d on RMA-S L^d cells (no peptide added) (murine) (UniProt P01897); test: direct flow cytometry on RMA-S L^d cells without added peptide
unloaded H-2 L^d on RMA-S L^d cells (no peptide added) (murine), sequence (P01897 25-309): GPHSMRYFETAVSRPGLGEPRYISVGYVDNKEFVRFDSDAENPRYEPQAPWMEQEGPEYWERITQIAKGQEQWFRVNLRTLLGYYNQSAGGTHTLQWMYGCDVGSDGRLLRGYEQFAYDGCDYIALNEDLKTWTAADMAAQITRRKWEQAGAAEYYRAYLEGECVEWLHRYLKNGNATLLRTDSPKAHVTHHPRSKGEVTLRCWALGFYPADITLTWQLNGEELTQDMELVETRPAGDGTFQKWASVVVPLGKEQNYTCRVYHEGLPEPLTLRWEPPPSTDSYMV

[8] = biological target: H-2 L^d on RENCA cells, naturally loaded (murine) (UniProt P01897); test: flow cytometry on RENCA cells cultured with 5-50 units/ml γ-IFN
H-2 L^d on RENCA cells, naturally loaded (murine), sequence (P01897 25-362): as the sequence (P01897 25-362) above

[9] = biological target: SIY-loaded H-2 K^b on T2 K^b cells (murine) (UniProt P01901); test: cell-based or functional assay
SIY-loaded H-2 K^b on T2 K^b cells (murine), sequence (P01901 22-369): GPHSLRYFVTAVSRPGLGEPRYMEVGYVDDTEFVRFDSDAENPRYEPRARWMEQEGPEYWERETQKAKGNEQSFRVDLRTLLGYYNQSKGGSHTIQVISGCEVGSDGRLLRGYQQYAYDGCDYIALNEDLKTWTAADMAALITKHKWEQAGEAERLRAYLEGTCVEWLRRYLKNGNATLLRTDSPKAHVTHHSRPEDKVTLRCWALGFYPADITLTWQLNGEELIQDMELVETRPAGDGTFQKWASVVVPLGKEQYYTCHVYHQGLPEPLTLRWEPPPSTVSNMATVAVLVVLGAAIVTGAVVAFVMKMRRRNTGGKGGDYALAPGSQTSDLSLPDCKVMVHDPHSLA

[10] = biological target: SIY-loaded H-2 K^bm3 on T2 K^bm3 cells (murine); test: cell-based or functional assay
[11] = biological target: dEV-8-loaded H-2 K^bm3 on T2 K^bm3 cells (murine); test: cell-based or functional assay
[12] = biological target: p2Ca-loaded H-2 L^d (murine) (UniProt P01897); test: cell-based or functional assay

QL9-loaded H-2 L^d (murine), sequence (P01897 25-362): as the sequence (P01897 25-362) above
2C TCR on 2C CTL, sequence (A2KF29 whole entry): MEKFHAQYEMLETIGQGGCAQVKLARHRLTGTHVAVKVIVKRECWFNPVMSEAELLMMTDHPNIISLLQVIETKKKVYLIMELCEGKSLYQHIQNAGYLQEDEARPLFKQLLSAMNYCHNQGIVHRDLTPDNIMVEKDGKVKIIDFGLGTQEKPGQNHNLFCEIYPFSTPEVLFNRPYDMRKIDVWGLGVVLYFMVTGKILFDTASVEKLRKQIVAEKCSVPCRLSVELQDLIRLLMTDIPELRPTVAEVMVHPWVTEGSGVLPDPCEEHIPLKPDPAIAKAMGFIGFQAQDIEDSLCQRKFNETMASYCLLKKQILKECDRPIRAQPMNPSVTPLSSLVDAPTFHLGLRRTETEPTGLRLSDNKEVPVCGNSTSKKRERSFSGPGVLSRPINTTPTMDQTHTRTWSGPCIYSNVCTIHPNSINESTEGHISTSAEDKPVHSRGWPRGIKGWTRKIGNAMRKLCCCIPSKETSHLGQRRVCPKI
soluble divalent 2C TCR/Ig, sequence (A2KF29 whole entry, looked up, tested part not stated): as the sequence (A2KF29 whole entry) above

**Q.** Which results are given for “soluble divalent 2C TCR/Ig (from UniProt A2KF29)”?
**A.** MCF [1]: 36 MCF; MCF [2]: 3000 MCF; MCF [3]: 1 MCF; MCF [4]: 1 MCF; MCF [5]: 600 MCF; concentration at which binding was detected [6]: < 1 nM

**Q.** Which results are given for mAb 30.5.7 (antibody)?
**A.** fold increase of mean channel fluorescence (cells at 27° C. against cells at 37° C.) [7]: 5 fold; fold increase of serologically reactive H-2 L^d on γ-IFN treated cells over untreated cells [8]: 5 to 6 fold

**Q.** What does the source list for 2C TCR on 2C CTL (from UniProt A2KF29)?
**A.** 2C CTL mediated lysis of peptide-loaded T2 cells (51Cr release), LD50 of the peptide [9]: 10 ng/mL; 2C CTL mediated lysis of peptide-loaded T2 cells (51Cr release), LD50 of the peptide [10]: 100 ng/mL; 2C CTL mediated lysis of peptide-loaded T2 cells (51Cr release), LD50 of the peptide [11]: 0.5 ng/mL and 1 ng/mL; 2C CTL mediated lysis of p2Ca-loaded T2 L^d cells (51Cr release), LD50 of the peptide [12]: 0.5 ng/mL
